Data taken from the supplement of paper PMC11316812.
± gives the standard deviation of the averaged measurements.

Tests used:
hTERT-HMEC = test: percentage of EdU-negative (G0-arrested) nuclei per well, 72 h; higher = more G0 arrest; settings: reference: sequence is the full UniProt precursor, the tested protein was the secreted form or ectodomain
MCF7 = test: as above; settings: reference: sequence is the full UniProt precursor, the tested protein was the secreted form or ectodomain
[1] = protein concentration 0.0225 µM
[2] = protein concentration 0.02372 µM
[3] = protein concentration 0.2372 µM
[4] = protein concentration 0.0257143 µM
[5] = protein concentration 0.257143 µM
[6] = protein concentration 0.03125 µM
[7] = protein concentration 0.3125 µM
[8] = protein concentration 0.0183225 µM
[9] = protein concentration 0.183225 µM
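Further: secreted proteins added to cultured cells, EdU pulse at the end, nuclei found by Hoechst imaging, EdU status from nuclear versus surrounding ring intensity ratio, PBS as neutral control.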

For “MISPFLVLAIGTCLTNSLVPEKEKDPKYWRDQAQETLKYALELQKLNTNVAKNVIMFLGDGMGVSTVTAARILKGQLHHNPGEETRLEMDKFPFVALSKTYNTNAQVPDSAGTATAYLCGVKANEGTVGVSAATERSRCNTTQGNEVTSILRWAKDAGKSVGIVTTTRVNHATPSAAYAHSADRDWYSDNEMPPEALSQGCKDIAYQLMHNIRDIDVIMGGGRKYMYPKNKTDVEYESDEKARGTRLDGLDLVDTWKSFKPRYKHSHFIWNRTELLTLDPHNVDYLLGLFEPGDMQYELNRNNVTDPSLSEMVVVAIQILRKNPKGFFLLVEGGRIDHGHHEGKAKQALHEAVEMDRAIGQAGSLTSSEDTLTVVTADHSHVFTFGGYTPRGNSIFGLAPMLSDTDKKPFTAILYGNGPGYKVVGGERENVSMVDYAHNNYQAQSAVPLRHETHGGEDVAVFSKGPMAHLLHGVHEQNYVPHVMAYAACIGANLGHCAPASSAGSLAAGPLLLALALYPLSVLF”, the “percentage of EdU-negative” value (hTERT-HMEC; [1]) was 4.55 ± 0.2%, the “percentage of EdU-negative” value (hTERT-HMEC; protein concentration 0.225 µM) was 4.93 ± 0.7% and the “percentage of EdU-negative” value (MCF7; [1]) was 26.1 ± 0.93%. For the same sequence, the “percentage of EdU-negative” value (MCF7; protein concentration 0.225 µM) was 24.1 ± 2.4%.

“MISPVLILFSSFLCHVAIAGRTCPKPDDLPFSTVVPLKTFYEPGEEITYSCKPGYVSRGGMRKFICPLTGLWPINTLKCTPRVCPFAGILENGAVRYTTFEYPNTISFSCNTGFYLNGADSAKCTEEGKWSPELPVCAPIICPPPSIPTFATLRVYKPSAGNNSLYRDTAVFECLPQHAMFGNDTITCTTHGNWTKLPECREVKCPFPSRPDNGFVNYPAKPTLYYKDKATFGCHDGYSLDGPEEIECTKLGNWSAMPSCKASCKVPVKKATVVYQGERVKIQEKFKNGMLHGDKVSFFCKNKEKKCSYTEDAQCIDGTIEVPKCFKEHSSLAFWKTDASDVKPC” was tested, and the “percentage of EdU-negative” value (hTERT-HMEC; [2]) was 5.35 ± 0.089%, the “percentage of EdU-negative” value (hTERT-HMEC; [3]) was 5.3 ± 0.56% and the “percentage of EdU-negative” value (MCF7; [2]) was 28.1 ± 0.39%. The “percentage of EdU-negative” value (MCF7; [3]) was 24.5 ± 3.1%.

In the case of “MKAIIHLTLLALLSVNTATNQGNSADAVTTTETATSGPTVAAADTTETNFPETASTTANTPSFPTATSPAPPIISTHSSSTIPTPAPPIISTHSSSTIPIPTAADSESTTNVNSLATSDIITASSPNDGLITMVPSETQSNNEMSPTTEDNQSSGPPTGTALLETSTLNSTGPSNPCQDDPCADNSLCVKLHNTSFCLCLEGYYYNSSTCKKGKVFPGKISVTVSETFDPEEKHSMAYQDLHSEITSLFKDVFGTSVYGQTVILTVSTSLSPRSEMRADDKFVNVTIVTILAETTSDNEKTVTEKINKAIRSSSSNFLNYDLTLRCDYYGCNQTADDCLNGLACDCKSDLQRPNPQSPFCVASSLKCPDACNAQHKQCLIKKSGGAPECACVPGYQEDANGNCQKCAFGYSGLDCKDKFQLILTIVGTIAGIVILSMIIALIVTARSNNKTKHIEEENLIDEDFQNLKLRSTGFTNLGAEGSVFPKVRITASRDSQMQNPYSRHSSMPRPDY [Q9H3R2]”, the “percentage of EdU-negative” value (hTERT-HMEC; [4]) is reported as 5.64 ± 0.33%, the “percentage of EdU-negative” value (hTERT-HMEC; [5]) is reported as 5.31 ± 0.37% and the “percentage of EdU-negative” value (MCF7; [4]) is reported as 22.5 ± 1.3%. The “percentage of EdU-negative” value (MCF7; [5]) was 26.7 ± 0.67%.

“MKALGAVLLALLLFGRPGRGQTQQEEEEEDEDHGPDDYDEEDEDEVEEEETNRLPGGRSRVLLRCYTCKSLPRDERCNLTQNCSHGQTCTTLIAHGNTESGLLTTHSTWCTDSCQPITKTVEGTQVTMTCCQSSLCNVPPWQSSRVQDPTGKGAGGPRGSSETVGAALLLNLLAGLGAMGARRP [Q8IV16]” was tested, and the “percentage of EdU-negative” value (hTERT-HMEC; [1]) was 4.99 ± 0.54%, the “percentage of EdU-negative” value (hTERT-HMEC; protein concentration 0.225 µM) was 4.82 ± 0.83% and the “percentage of EdU-negative” value (MCF7; [1]) was 28.3 ± 1.3%. For the same sequence, the “percentage of EdU-negative” value (MCF7; protein concentration 0.225 µM) was 24.9 ± 0.96%.

“MKALIAALLLITLQYSCAVSPTDCSAVEPEAEKALDLINKRRRDGYLFQLLRIADAHLDRVENTTVYYLVLDVQESDCSVLSRKYWNDCEPPDSRRPSEIVIGQCKVIATRHSHESQDLRVIDFNCTTSSVSSALANTKDSPVLIDFFEDTERYRKQANKALEKYKEENDDFASFRVDRIERVARVRGGEGTGYFVDFSVRNCPRHHFPRHPNVFGFCRADLFYDVEALDLESPKNLVINCEVFDPQEHENINGVPPHLGHPFHWGGHERSSTTKPPFKPHGSRDHHHPHKPHEHGPPPPPDERDHSHGPPLPQGPPPLLPMSCSSCQHATFGTNGAQRHSHNNNSSDLHPHKHHSHEQHPHGHHPHAHHPHEHDTHRQHPHGHHPHGHHPHGHHPHGHHPHGHHPHCHDFQDYGPCDPPPHNQGHCCHGHGPPPGHLRRRGPGKGPRPFHCRQIGSVYRLPPLRKGEVLPLPEANFPSFPLPHHKHPLKPDNQPFPQSVSESCPGKFKSGFPQVSMFFTHTFPK” was tested, and the “percentage of EdU-negative” value (hTERT-HMEC; [6]) was 4.57 ± 0.34%, the “percentage of EdU-negative” value (hTERT-HMEC; [7]) was 4.52 ± 0.3% and the “percentage of EdU-negative” value (MCF7; [6]) was 26 ± 1.3%. For the same sequence, the “percentage of EdU-negative” value (MCF7; [7]) was 25.5 ± 0.58%.

With “MKALIVLGLVLLSVTVQGKVFERCELARTLKRLGMDGYRGISLANWMCLAKWESGYNTRATNYNAGDRSTDYGIFQINSRYWCNDGKTPGAVNACHLSCSALLQDNIADAVACAKRVVRDPQGIRAWVAWRNRCQNRDVRQYVQGCGV” the “percentage of EdU-negative” value (hTERT-HMEC; [8]) was 5.192 ± 0.011%, the “percentage of EdU-negative” value (hTERT-HMEC; [9]) was 4.83 ± 0.071% and the “percentage of EdU-negative” value (MCF7; [8]) was 25.9 ± 0.84%. The “percentage of EdU-negative” value (MCF7; [9]) was 24.489 ± 0.011%.

“MKALLALPLLLLLSTPPCAPQVSGIRGDALERFCLQQPLDCDDIYAQGYQSDGVYLIYPSGPSVPVPVFCDMTTEGGKWTVFQKRFNGSVSFFRGWNDYKLGFGRADGEYWLGLQNMHLLTLKQKYELRVDLEDFENNTAYAKYADFSISPNAVSAEEDGYTLFVAGFEDGGAGDSLSYHSGQKFSTFDRDQDLFVQNCAALSSGAFWFRSCHFANLNGFYLGGSHLSYANGINWAQWKGFYYSLKRTEMKIRRA” was tested, and the “percentage of EdU-negative” value (hTERT-HMEC; [6]) was 4.11 ± 0.33%, the “percentage of EdU-negative” value (hTERT-HMEC; [7]) was 4.91 ± 0.91% and the “percentage of EdU-negative” value (MCF7; [6]) was 22.9 ± 0.61%. The “percentage of EdU-negative” value (MCF7; [7]) was 26.2 ± 3.4%.

“MKASSLAFSLLSAAFYLLWTPSTGLKTLNLGSCVIATNLQEIRNGFSEIRGSVQAKDGNIDIRILRRTESLQDTKPANRCCLLRHLLRLYLDRVFKNYQTPDHYTLRKISSLANSFLTIKKDLRLCHAHMTCHCGEEAMKKYSQILSHFEKLEPQAAVVKALGELDILLQWMEETE [Q9NYY1]” was tested, and the “percentage of EdU-negative” value (hTERT-HMEC; [1]) was 4.59 ± 0.14%, the “percentage of EdU-negative” value (hTERT-HMEC; protein concentration 0.225 µM) was 8.36 ± 0.57% and the “percentage of EdU-negative” value (MCF7; [1]) was 25.2 ± 0.85%. For the same sequence, the “percentage of EdU-negative” value (MCF7; protein concentration 0.225 µM) was 27.2 ± 2.3%.
